{
  "source": "paper PMC4937323",
  "key": {"[1]": {"biological_target": "RPA (wild-type, biotinylated on RPA3) (Homo sapiens, UniProt P27694;P15927;P35244 1-616;1-270;1-121)", "sequence (P27694 whole entry, chain 1 of 3)": "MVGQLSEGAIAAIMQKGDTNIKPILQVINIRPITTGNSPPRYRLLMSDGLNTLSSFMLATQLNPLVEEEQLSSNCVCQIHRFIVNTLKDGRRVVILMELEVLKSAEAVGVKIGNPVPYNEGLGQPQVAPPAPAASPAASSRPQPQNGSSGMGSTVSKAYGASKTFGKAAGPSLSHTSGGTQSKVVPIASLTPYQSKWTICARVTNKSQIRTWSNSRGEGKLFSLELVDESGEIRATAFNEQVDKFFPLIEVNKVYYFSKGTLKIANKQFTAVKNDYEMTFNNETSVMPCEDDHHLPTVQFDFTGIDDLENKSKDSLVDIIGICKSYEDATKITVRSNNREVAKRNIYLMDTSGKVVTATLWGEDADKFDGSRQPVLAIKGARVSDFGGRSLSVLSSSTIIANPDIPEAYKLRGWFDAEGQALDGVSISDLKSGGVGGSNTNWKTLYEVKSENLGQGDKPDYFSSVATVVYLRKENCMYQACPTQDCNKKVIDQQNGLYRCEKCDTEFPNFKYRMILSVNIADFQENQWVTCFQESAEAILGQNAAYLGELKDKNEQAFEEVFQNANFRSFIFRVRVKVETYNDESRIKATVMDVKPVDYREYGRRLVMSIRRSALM", "sequence (P15927 whole entry, chain 2 of 3)": "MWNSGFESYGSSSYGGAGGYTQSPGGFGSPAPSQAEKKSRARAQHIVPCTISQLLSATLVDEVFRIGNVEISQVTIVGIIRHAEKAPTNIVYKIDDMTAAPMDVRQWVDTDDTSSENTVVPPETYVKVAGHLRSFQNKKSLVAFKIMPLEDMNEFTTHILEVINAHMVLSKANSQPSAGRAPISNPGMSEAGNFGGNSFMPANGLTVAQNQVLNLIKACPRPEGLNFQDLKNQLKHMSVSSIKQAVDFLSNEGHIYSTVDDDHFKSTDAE", "sequence (P35244 whole entry, chain 3 of 3)": "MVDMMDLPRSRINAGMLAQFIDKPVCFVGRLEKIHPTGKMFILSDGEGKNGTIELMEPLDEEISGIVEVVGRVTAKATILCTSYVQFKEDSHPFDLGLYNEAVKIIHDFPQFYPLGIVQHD", "test": "EMSA"}, "Aro2 [2]": {"biological_target": "T1, Aro2 (Homo sapiens, UniProt P27694;P15927;P35244 1-616;1-270;1-121, F269A;F386A)", "T1 sequence (P27694 whole entry F269A/F386A, chain 1 of 3)": "as the sequence (P27694 whole entry, chain 1 of 3) above, with F269A, F386A counted along it", "T1 sequence (P15927 whole entry, chain 2 of 3)": "as the sequence (P15927 whole entry, chain 2 of 3) above", "T1 sequence (P35244 whole entry, chain 3 of 3)": "as the sequence (P35244 whole entry, chain 3 of 3) above", "test": "smTIRFM"}, "AroA": {"biological_target": "AroA (Homo sapiens, UniProt P27694;P15927;P35244 1-616;1-270;1-121, F238A;F269A)", "sequence (P27694 whole entry F238A/F269A, chain 1 of 3)": "as the sequence (P27694 whole entry, chain 1 of 3) above, with F238A, F269A counted along it", "sequence (P15927 whole entry, chain 2 of 3)": "as the sequence (P15927 whole entry, chain 2 of 3) above", "sequence (P35244 whole entry, chain 3 of 3)": "as the sequence (P35244 whole entry, chain 3 of 3) above", "test": "smTIRFM"}, "AroB": {"biological_target": "AroB (Homo sapiens, UniProt P27694;P15927;P35244 1-616;1-270;1-121, W361A;F386A)", "sequence (P27694 whole entry W361A/F386A, chain 1 of 3)": "as the sequence (P27694 whole entry, chain 1 of 3) above, with W361A, F386A counted along it", "sequence (P15927 whole entry, chain 2 of 3)": "as the sequence (P15927 whole entry, chain 2 of 3) above", "sequence (P35244 whole entry, chain 3 of 3)": "as the sequence (P35244 whole entry, chain 3 of 3) above", "test": "smTIRFM"}, "Aro2 [3]": {"biological_target": "T1, Aro2", "test": "smTIRFM", "remark": "listed apart in the source"}},
  "note": "Like-named read-outs stand apart in the source and are kept apart here.",
  "data": [
    {"binder": "20 nt Bubble DNA (mixed) DNA 1: CCCTAGATACCAGTAAGCCTAAGGCCGGATCTCGGGCCATCCATGTACGC DNA 2: GCGTACATGGATGGCTTAGAGCTTAATTCCGAATCTACTGGTATCTAGGG", "values": [
      {"measurement": "binding result", "setting": "[1]", "value": "binds"}
    ]},
    {"binder": "TTTTTTTTTTTTTTTTTTTT (ssDNA)", "note": "[dT20]", "values": [
      {"measurement": "binding result", "setting": "Aro2 [2]", "value": "binds"}
    ]},
    {"binder": "TTTTTTTTTTTTTTT (ssDNA)", "note": "[dT15]", "values": [
      {"measurement": "binding result", "setting": "AroA", "value": "no binding"},
      {"measurement": "binding result", "setting": "AroB", "value": "no binding"},
      {"measurement": "binding result", "setting": "Aro2 [3]", "value": "no binding"}
    ]}
  ]
}
